Results from article PMC6422423, “Constitutively active BRS3 is a genuinely orphan GPCR in placental mammals” (PLoS Biology, 2019).
Where no end group is shown, it is not given here.

Tests used:
[1] = target: spotted gar bombesin receptor subtype-3 (spotted gar (Lepisosteus oculatus)); experiment: radioligand binding; displacement of 50 pM [125I]-Tyr-NMB by unlabeled peptide on disaggregated transfected HEK293 cells; 1 h at 21°C; 24.5 mM HEPES pH 7.4, 98 mM NaCl; bound tracer separated by centrifugation
spotted gar bombesin receptor subtype-3 (spotted gar (Lepisosteus oculatus)), sequence (main, as listed by the source): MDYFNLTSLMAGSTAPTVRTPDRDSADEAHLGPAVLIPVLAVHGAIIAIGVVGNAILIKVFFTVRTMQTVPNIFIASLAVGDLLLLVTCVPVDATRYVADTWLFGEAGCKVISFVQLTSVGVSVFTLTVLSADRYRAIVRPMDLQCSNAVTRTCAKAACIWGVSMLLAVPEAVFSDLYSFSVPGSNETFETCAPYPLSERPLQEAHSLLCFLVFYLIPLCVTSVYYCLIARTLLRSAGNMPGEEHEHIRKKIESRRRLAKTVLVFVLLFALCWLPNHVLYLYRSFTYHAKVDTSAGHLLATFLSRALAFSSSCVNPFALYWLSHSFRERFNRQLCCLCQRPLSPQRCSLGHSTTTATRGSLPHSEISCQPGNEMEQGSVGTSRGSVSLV

[2] = target: turtle bombesin receptor subtype-3 (turtle (Chrysemys picta)); experiment: as above
turtle bombesin receptor subtype-3 (turtle (Chrysemys picta)), sequence (main, as listed by the source): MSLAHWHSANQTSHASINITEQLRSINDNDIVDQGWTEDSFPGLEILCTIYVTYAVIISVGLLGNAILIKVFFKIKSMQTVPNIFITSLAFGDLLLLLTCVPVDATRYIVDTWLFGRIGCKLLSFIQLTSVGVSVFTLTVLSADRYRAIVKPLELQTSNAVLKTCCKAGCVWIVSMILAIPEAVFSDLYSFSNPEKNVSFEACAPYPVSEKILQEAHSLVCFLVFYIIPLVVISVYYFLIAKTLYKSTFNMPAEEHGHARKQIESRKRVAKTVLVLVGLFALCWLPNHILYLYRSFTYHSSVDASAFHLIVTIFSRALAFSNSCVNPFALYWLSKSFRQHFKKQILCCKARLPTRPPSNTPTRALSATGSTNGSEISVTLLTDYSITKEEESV

[3] = target: chicken bombesin receptor subtype-3 (chicken (Gallus gallus)); experiment: as above
[4] = target: spotted gar bombesin receptor subtype-3 (spotted gar (Lepisosteus oculatus)); experiment: radioligand binding; displacement of 50 pM [125I]-Tyr42-GRP by unlabeled peptide on disaggregated transfected HEK293 cells; 1 h at 21°C; 24.5 mM HEPES pH 7.4, 98 mM NaCl; bound tracer separated by centrifugation
[5] = target: turtle bombesin receptor subtype-3 (turtle (Chrysemys picta)); experiment: as above
[6] = target: chicken bombesin receptor subtype-3 (chicken (Gallus gallus)); experiment: as above
[7] = target: aardvark bombesin receptor subtype-3 (aardvark (Orycteropus afer)); experiment: as above
aardvark bombesin receptor subtype-3 (aardvark (Orycteropus afer)), sequence (P32247 other isoform, or with tags, fused parts or gaps): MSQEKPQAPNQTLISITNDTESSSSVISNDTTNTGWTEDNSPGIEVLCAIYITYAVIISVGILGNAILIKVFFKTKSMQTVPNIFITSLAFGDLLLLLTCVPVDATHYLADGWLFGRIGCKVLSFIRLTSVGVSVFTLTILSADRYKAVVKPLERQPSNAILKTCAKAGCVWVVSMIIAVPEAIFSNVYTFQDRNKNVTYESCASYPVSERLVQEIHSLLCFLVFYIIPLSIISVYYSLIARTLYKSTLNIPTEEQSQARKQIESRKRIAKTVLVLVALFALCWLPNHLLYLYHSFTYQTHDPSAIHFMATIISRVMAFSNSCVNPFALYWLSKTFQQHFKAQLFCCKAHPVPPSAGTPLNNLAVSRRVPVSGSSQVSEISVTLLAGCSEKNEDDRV

APLQPGGSPALTKIYPRGSHWAVGHLM (ends and bridges not checked) [gastrin-releasing peptide, unlabeled ligand peptide of the radioligand binding assays] was tested, and the IC50 [1] was 0.54 nM, the IC50 [2] was 0.28 nM and the IC50 [3] was 0.18 nM. The IC50 [4] was 0.17 nM, the IC50 [5] was 0.14 nM and the IC50 [6] was 0.15 nM. For the same binder, the Ki [7] was over 1000 nM.
